Source: US20070269486A1, “Methods and Devices for Reducing Tissue Damage After Ischemic Injury” (priority 2005, published 2007)

Assay: retention of insulin bioactivity when delivered in PLGA
Conditions: delivered in poly(lactide-co-glycolide) (PLGA)
From the text: Insulin is a hormone which improves glycolic metabolism and ATP production. Insulin also may act as a vasodilator, an anti-inflammatory, and an antiplatelet agent. Thus, insulin acts by several mechanisms to decrease infarct size by reducing inflammation, slowing the rate of ischemic necrosis, decreasing circulating levels of FFA and myocardial FFA uptake, restoring myocardial glycogen stores and improving contractile function. The insulin can be human, non-human, or synthetic and can be complete or fragments. Preferably the insulin is a stable, short acting form which is resistant to radiation. Insulin in its crystalline form may be used for improved resistance to radiation. When the insulin is combined with a polymer an agent may be added to preserve bioactivity. […] For substantially longer administration periods, an antacid or other agent may be used to maintain a required pH for continued bioactivity from a PLGA matrix.
Protein or peptide drugs can be human, non-human, recombinant or synthetic and can be the full length native form or an active fragment thereof. Preferably the insulin is a stable, short acting form which is resistant to radiation. Insulin in its crystalline form may be used for improved resistance to radiation. When the insulin is combined with a polymer, an agent may be added to preserve bioactivity. […]

insulin
period over which bioactivity is retained: at least 24 hours
